Measured values reported in patent US20260274955A1 (JANUX THERAPEUTICS, published 2026).

Assays:
[1] = target: T1, anti-CD28 Fab (SEQ ID NOs: 202, 203); experiment: phage ELISA on captured Fab;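 also: ELISA with clonal phage supernatants added to wells preincubated with CD28 antigen or with blocking buffer only, bound phage detected by HRP-conjugated anti-M13 antibody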
T1 construct: biotinylated and captured on neutravidin coated plates in the phage ELISA

[2] = target: T1, anti-CD28 Fab (SEQ ID NOs: 202, 203); experiment: phage ELISA on captured Fab, wells pre-incubated with CD28 antigen (competitor);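 also: clonal phage ELISA with wells pretreated with CD28 plus blocking buffer before phage addition, bound phage detected by HRP-linked anti-M13 antibody, reference wells got blocking buffer only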

T1 sequence (VH, as listed by the source, chain 1 of 2): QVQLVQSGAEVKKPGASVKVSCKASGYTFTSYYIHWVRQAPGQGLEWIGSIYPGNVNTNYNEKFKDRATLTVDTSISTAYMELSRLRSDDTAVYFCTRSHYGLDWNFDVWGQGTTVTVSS
T1 sequence (VL, as listed by the source, chain 2 of 2): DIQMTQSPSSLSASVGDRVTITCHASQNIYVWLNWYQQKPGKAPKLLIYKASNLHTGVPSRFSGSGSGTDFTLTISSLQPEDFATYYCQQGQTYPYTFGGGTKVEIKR

With YCEGHIAEYMQKCL (on phage, pIII fusion) [Phage-480] the “Anti-CD28 Fab (SEQ ID NOs: 202, 203) signal” value [1] was 1.64 and the “Anti-CD28 Fab signal in the presence of CD28” value (“Anti-CD28 Fab signal” for short) [2] was 0.13.

With YCDGHELKYMLKCL (on phage, pIII fusion) [Phage-502] the “Anti-CD28 Fab (SEQ ID NOs: 202, 203) signal” value [1] was 1.62 and the “Anti-CD28 Fab signal” value [2] was 0.08.

YCDGHAKEYIQKCL (on phage, pIII fusion) [Phage-526] was tested, and the “Anti-CD28 Fab (SEQ ID NOs: 202, 203) signal” value [1] was 1.58 and the “Anti-CD28 Fab signal” value [2] was 0.06.

YCDGHGPQYIQKCL (on phage, pIII fusion) [Phage-479] was tested, and the “Anti-CD28 Fab (SEQ ID NOs: 202, 203) signal” value [1] was 1.64 and the “Anti-CD28 Fab signal” value [2] was 0.07.

In the case of YCDGHSPQYIQKCL (on phage, pIII fusion) [Phage-566], the “Anti-CD28 Fab (SEQ ID NOs: 202, 203) signal” value [1] is reported as 1.5 and the “Anti-CD28 Fab signal” value [2] is reported as 0.07.

YCQGHADEYMAKCL (on phage, pIII fusion) [Phage-528] was tested, and the “Anti-CD28 Fab (SEQ ID NOs: 202, 203) signal” value [1] was 1.58 and the “Anti-CD28 Fab signal” value [2] was 0.08.

With YCEGHDLIYMWKCL (on phage, pIII fusion) [Phage-488] the “Anti-CD28 Fab (SEQ ID NOs: 202, 203) signal” value [1] was 1.63 and the “Anti-CD28 Fab signal” value [2] was 0.06.

For YCEGHAPVYMFKCL (on phage, pIII fusion) [Phage-547], the “Anti-CD28 Fab (SEQ ID NOs: 202, 203) signal” value [1] was 1.54 and the “Anti-CD28 Fab signal” value [2] was 0.08.

With YCEGHADEYMWKCL (on phage, pIII fusion) [Phage-520] the “Anti-CD28 Fab (SEQ ID NOs: 202, 203) signal” value [1] was 1.59 and the “Anti-CD28 Fab signal” value [2] was 0.06.

YCEGHLGIYMTKCL (on phage, pIII fusion) [Phage-530] was tested, and the “Anti-CD28 Fab (SEQ ID NOs: 202, 203) signal” value [1] was 1.57 and the “Anti-CD28 Fab signal” value [2] was 0.08.

In the case of YCDGHSVEYLDKCL (on phage, pIII fusion) [Phage-553], the “Anti-CD28 Fab (SEQ ID NOs: 202, 203) signal” value [1] is reported as 1.53 and the “Anti-CD28 Fab signal” value [2] is reported as 0.08.

With YCSGHLPQYLEKCL (on phage, pIII fusion) [Phage-567] the “Anti-CD28 Fab (SEQ ID NOs: 202, 203) signal” value [1] was 1.5 and the “Anti-CD28 Fab signal” value [2] was 0.31.

In the case of YCEGHSWEHMEKCL (on phage, pIII fusion) [Phage-523], the “Anti-CD28 Fab (SEQ ID NOs: 202, 203) signal” value [1] is reported as 1.58 and the “Anti-CD28 Fab signal” value [2] is reported as 0.06.

YCDGHLQIYMGKCL (on phage, pIII fusion) [Phage-552] was tested, and the “Anti-CD28 Fab (SEQ ID NOs: 202, 203) signal” value [1] was 1.53 and the “Anti-CD28 Fab signal” value [2] was 0.06.

With YCEGHSIQYMTKCL (on phage, pIII fusion) [Phage-551] the “Anti-CD28 Fab (SEQ ID NOs: 202, 203) signal” value [1] was 1.53 and the “Anti-CD28 Fab signal” value [2] was 0.13.

For YCAGHLAIYMSKCL (on phage, pIII fusion) [Phage-497], the “Anti-CD28 Fab (SEQ ID NOs: 202, 203) signal” value [1] was 1.63 and the “Anti-CD28 Fab signal” value [2] was 0.08.

For YCAGHLPVYMDKCL (on phage, pIII fusion) [Phage-557], the “Anti-CD28 Fab (SEQ ID NOs: 202, 203) signal” value [1] was 1.52 and the “Anti-CD28 Fab signal” value [2] was 0.08.

For YCEGHVTEYMQKCL (on phage, pIII fusion) [Phage-499], the “Anti-CD28 Fab (SEQ ID NOs: 202, 203) signal” value [1] was 1.62 and the “Anti-CD28 Fab signal” value [2] was 0.08.

YCEGHSVEYIGKCL (on phage, pIII fusion) [Phage-521] was tested, and the “Anti-CD28 Fab (SEQ ID NOs: 202, 203) signal” value [1] was 1.59 and the “Anti-CD28 Fab signal” value [2] was 0.07.

YCEGHSEEFMSKCL (on phage, pIII fusion) [Phage-532] was tested, and the “Anti-CD28 Fab (SEQ ID NOs: 202, 203) signal” value [1] was 1.57 and the “Anti-CD28 Fab signal” value [2] was 0.08.

With YCAGHAPEYMSKCL (on phage, pIII fusion) [Phage-489] the “Anti-CD28 Fab (SEQ ID NOs: 202, 203) signal” value [1] was 1.63 and the “Anti-CD28 Fab signal” value [2] was 0.05.

With YCDGHNGVYWWKCI (on phage, pIII fusion) [Phage-549] the “Anti-CD28 Fab (SEQ ID NOs: 202, 203) signal” value [1] was 1.53 and the “Anti-CD28 Fab signal” value [2] was 0.07.

With YCEGHLEQYMQKCL (on phage, pIII fusion) [Phage-492] the “Anti-CD28 Fab (SEQ ID NOs: 202, 203) signal” value [1] was 1.63 and the “Anti-CD28 Fab signal” value [2] was 0.06.

B1: Phage-550 (peptide)
peptide: YCDGHAPEYLTKCL
notes: on phage, pIII fusion; cell for position 6 is missing in the printed row
With B1 the “Anti-CD28 Fab (SEQ ID NOs: 202, 203) signal” value [1] was 1.53 and the “Anti-CD28 Fab signal” value [2] was 0.06.

YCEGHLGQYMEKCL (on phage, pIII fusion) [Phage-548] was tested, and the “Anti-CD28 Fab (SEQ ID NOs: 202, 203) signal” value [1] was 1.54 and the “Anti-CD28 Fab signal” value [2] was 0.08.

In the case of YCDGHAWQYMWKCL (on phage, pIII fusion) [Phage-554], the “Anti-CD28 Fab (SEQ ID NOs: 202, 203) signal” value [1] is reported as 1.53 and the “Anti-CD28 Fab signal” value [2] is reported as 0.07.

In the case of YCAGHLEEYMWKCL (on phage, pIII fusion) [Phage-559], the “Anti-CD28 Fab (SEQ ID NOs: 202, 203) signal” value [1] is reported as 1.51 and the “Anti-CD28 Fab signal” value [2] is reported as 0.08.

With YCDGHSPEYMLKCL (on phage, pIII fusion) [Phage-505] the “Anti-CD28 Fab (SEQ ID NOs: 202, 203) signal” value [1] was 1.61 and the “Anti-CD28 Fab signal” value [2] was 0.07.

With YCAGHSPQYMEKCL (on phage, pIII fusion) [Phage-506] the “Anti-CD28 Fab (SEQ ID NOs: 202, 203) signal” value [1] was 1.61 and the “Anti-CD28 Fab signal” value [2] was 0.06.

In the case of YCEGHTAEHMQKCL (on phage, pIII fusion) [Phage-482], the “Anti-CD28 Fab (SEQ ID NOs: 202, 203) signal” value [1] is reported as 1.64 and the “Anti-CD28 Fab signal” value [2] is reported as 0.05.

YCEGHSSEYMWKCL (on phage, pIII fusion) [Phage-490] was tested, and the “Anti-CD28 Fab (SEQ ID NOs: 202, 203) signal” value [1] was 1.63 and the “Anti-CD28 Fab signal” value [2] was 0.09.

With YCDGHLDVYRAKCL (on phage, pIII fusion) [Phage-491] the “Anti-CD28 Fab (SEQ ID NOs: 202, 203) signal” value [1] was 1.63 and the “Anti-CD28 Fab signal” value [2] was 0.09.

With YCDGHSEAFMQKCL (on phage, pIII fusion) [Phage-495] the “Anti-CD28 Fab (SEQ ID NOs: 202, 203) signal” value [1] was 1.63 and the “Anti-CD28 Fab signal” value [2] was 0.07.

In the case of YCEGHSWVYMAKCL (on phage, pIII fusion) [Phage-493], the “Anti-CD28 Fab (SEQ ID NOs: 202, 203) signal” value [1] is reported as 1.63 and the “Anti-CD28 Fab signal” value [2] is reported as 0.07.

In the case of YCDGHLPEYLAKCL (on phage, pIII fusion) [Phage-555], the “Anti-CD28 Fab (SEQ ID NOs: 202, 203) signal” value [1] is reported as 1.52 and the “Anti-CD28 Fab signal” value [2] is reported as 0.06.

In the case of YCDGHLPQYLQKCT (on phage, pIII fusion) [Phage-525], the “Anti-CD28 Fab (SEQ ID NOs: 202, 203) signal” value [1] is reported as 1.58 and the “Anti-CD28 Fab signal” value [2] is reported as 0.07.

For YCDGHLSEYMSKCL (on phage, pIII fusion) [Phage-498], the “Anti-CD28 Fab (SEQ ID NOs: 202, 203) signal” value [1] was 1.62 and the “Anti-CD28 Fab signal” value [2] was 0.06.

In the case of YCDGHHKEYLLKCL (on phage, pIII fusion) [Phage-568], the “Anti-CD28 Fab (SEQ ID NOs: 202, 203) signal” value [1] is reported as 1.49 and the “Anti-CD28 Fab signal” value [2] is reported as 0.06.

With YCDGHSWQYMWKCI (on phage, pIII fusion) [Phage-531] the “Anti-CD28 Fab (SEQ ID NOs: 202, 203) signal” value [1] was 1.57 and the “Anti-CD28 Fab signal” value [2] was 0.09.

For YCAGHVAEYMAKCL (on phage, pIII fusion) [Phage-483], the “Anti-CD28 Fab (SEQ ID NOs: 202, 203) signal” value [1] was 1.64 and the “Anti-CD28 Fab signal” value [2] was 0.06.

With YCDGHLAVYMAKCL (on phage, pIII fusion) [Phage-556] the “Anti-CD28 Fab (SEQ ID NOs: 202, 203) signal” value [1] was 1.52 and the “Anti-CD28 Fab signal” value [2] was 0.08.

YCEGHSAQYMHKCL (on phage, pIII fusion) [Phage-481] was tested, and the “Anti-CD28 Fab (SEQ ID NOs: 202, 203) signal” value [1] was 1.64 and the “Anti-CD28 Fab signal” value [2] was 0.06.

In the case of YCEGHSAMYIWKCL (on phage, pIII fusion) [Phage-558], the “Anti-CD28 Fab (SEQ ID NOs: 202, 203) signal” value [1] is reported as 1.52 and the “Anti-CD28 Fab signal” value [2] is reported as 0.1.

In the case of YCDGHAEEYLLKCL (on phage, pIII fusion) [Phage-529], the “Anti-CD28 Fab (SEQ ID NOs: 202, 203) signal” value [1] is reported as 1.57 and the “Anti-CD28 Fab signal” value [2] is reported as 0.05.

With YCDGHATEYMQKCL (on phage, pIII fusion) [Phage-484] the “Anti-CD28 Fab (SEQ ID NOs: 202, 203) signal” value [1] was 1.64 and the “Anti-CD28 Fab signal” value [2] was 0.1.

With YCEGHMWEYMAKCL (on phage, pIII fusion) [Phage-485] the “Anti-CD28 Fab (SEQ ID NOs: 202, 203) signal” value [1] was 1.64 and the “Anti-CD28 Fab signal” value [2] was 0.13.

In the case of YCAGHLPEYMGKCL (on phage, pIII fusion) [Phage-496], the “Anti-CD28 Fab (SEQ ID NOs: 202, 203) signal” value [1] is reported as 1.63 and the “Anti-CD28 Fab signal” value [2] is reported as 0.07.

For YCEGHLPQYMVKCL (on phage, pIII fusion) [Phage-527], the “Anti-CD28 Fab (SEQ ID NOs: 202, 203) signal” value [1] was 1.58 and the “Anti-CD28 Fab signal” value [2] was 0.07.

With YCAGHSSEYIPKCL (on phage, pIII fusion) [Phage-524] the “Anti-CD28 Fab (SEQ ID NOs: 202, 203) signal” value [1] was 1.58 and the “Anti-CD28 Fab signal” value [2] was 0.09.

In the case of YCAGHSLEYMQKCL (on phage, pIII fusion) [Phage-487], the “Anti-CD28 Fab (SEQ ID NOs: 202, 203) signal” value [1] is reported as 1.63 and the “Anti-CD28 Fab signal” value [2] is reported as 0.07.

YCDGHKAEYMQKCL (on phage, pIII fusion) [Phage-565] was tested, and the “Anti-CD28 Fab (SEQ ID NOs: 202, 203) signal” value [1] was 1.5 and the “Anti-CD28 Fab signal” value [2] was 0.06.

With YCDGHLLEYKAKCL (on phage, pIII fusion) [Phage-503] the “Anti-CD28 Fab (SEQ ID NOs: 202, 203) signal” value [1] was 1.62 and the “Anti-CD28 Fab signal” value [2] was 0.07.
